Experiment [1] addresses myelin basic protein (MBP).
Experiment [2] addresses SF2/ASF (wild type) (Homo sapiens (Human)) (UniProt Q07955).

On to “SR protein-specific kinase, SRPK1 (enzyme)”, for which, in experiment [1], the Km for phosphorylation of MBP was 5.8 µM and the Vmax for phosphorylation of MBP was determined as 0.02 pmol per min. In addition, in experiment [2], the Km for phosphorylation of SF2/ASF came to 0.07 µM and the Vmax for phosphorylation of SF2/ASF is 0.45 pmol per min.

The values are drawn from US5559019.
